Source: patent publication US20100286367

Target: T1, purified human Lys77-Plasminogen, P00747
T1 chain: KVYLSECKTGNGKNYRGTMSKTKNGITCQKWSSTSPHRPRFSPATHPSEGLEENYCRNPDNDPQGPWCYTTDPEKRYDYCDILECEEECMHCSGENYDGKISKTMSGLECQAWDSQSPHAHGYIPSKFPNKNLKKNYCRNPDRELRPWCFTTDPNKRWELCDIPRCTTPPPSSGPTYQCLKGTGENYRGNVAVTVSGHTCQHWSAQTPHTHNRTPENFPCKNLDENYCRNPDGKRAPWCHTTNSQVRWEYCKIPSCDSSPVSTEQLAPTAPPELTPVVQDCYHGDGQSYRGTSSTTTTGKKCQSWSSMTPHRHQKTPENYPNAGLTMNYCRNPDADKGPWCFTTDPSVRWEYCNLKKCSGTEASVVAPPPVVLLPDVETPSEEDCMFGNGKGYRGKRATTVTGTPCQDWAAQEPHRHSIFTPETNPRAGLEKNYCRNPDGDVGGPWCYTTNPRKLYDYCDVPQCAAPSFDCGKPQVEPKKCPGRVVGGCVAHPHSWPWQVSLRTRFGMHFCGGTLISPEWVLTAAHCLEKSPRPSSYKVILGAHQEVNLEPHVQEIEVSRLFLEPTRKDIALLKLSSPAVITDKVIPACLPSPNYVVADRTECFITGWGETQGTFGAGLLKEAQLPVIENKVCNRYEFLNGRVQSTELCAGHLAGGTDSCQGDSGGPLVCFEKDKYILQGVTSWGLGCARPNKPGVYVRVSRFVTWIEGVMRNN

B1: thiolated streptokinase (protein)
chain: IAGPEWLLDRPSVNNSQLVVSVAGTVEGTNQDISLKFFEIDLTSRPAHGGKTEQGLSPKSKPFATDSGAMSHKLEKADLLKAIQEQLIANVHSNDDYFEVIDFASDATITDRNGKVYFADKDGSVTLPTQPVQEFLLSGHVRVRPYKEKPIQNQAKSVDVEYTVQFTPLNPDDDFRPGLKDTKLLKTLAIGDTITSQELLAQAQSILNKNHPGYTIYERDSSIVTHDNDIFRTILPMDQEFTYRVKNREQAYRINKKSGLNEEINNTDLISEKYYVLKKGEKPYDPFDRSHLKLFTIKYVDVDTNELLKSEQLLTASERNLDFRDLYDPRDKAKLLYNNLDAFGIMDYTLTGKVEDNHDDTNRIITVYMGKRPEGENASYHLAYDKDRYTEEEREVYSYLRYTGTPIPDNPNDK
plasmin generated in the plasminogen activation assay (S-2251 amidolysis, SU/ml): thiolated SK (1 nM) generated plasmin at a nearly linear of 4225 SU/mL
